Measured values from a protein production outcome set (Wang et al. 2014).

Assay: label from the status in PepcDB records

| Sequence | protein production |
| --- | --- |
| MNDITIIGASQNNLKNINITIPKHLVTVFTGRSGSGKSSLVFRTIAAESEQLLNESYSSYIQFHLNKQPKPKVNAIKNLPVAMTISQKRFNGNSRSTVGTVSDIYASVRLLWSRIGEPFVGYSDAFSFNSPNGMCETCEGLGYIEDINLNELLDWNKSLNEGAINFPSFGPDKERGKAYRDSGLFDNDKKLKAYTKEELDLFLYQEPIKLKKPPEEWRKSAKYVGLIPRFRRIFLGDKEFNKKRYAKHLKNVVENKVCPTCNGQRLNSKILSCKIMGKNISDFTQMTVKENLAFLNKLNNSTAQFIIEPLRKQLEALDYIGLSYLTLDRVTTSLSGGEAQRLKLIRHLNSSLSDLVYIIDEPSVGLHPEDIAKINEILKSLKHKGNTVLIVEHDPDVIKEADYIIDMGPSSGAQGGEITFKGTYKKLLSSDTSTGEALRIKHHLKNEIREAKSFYHLGPVTQNNLNNVTVDIPKHVLTVLTGVAGSGKSSLVKAGFAKNDNAVFMDQKAIQGSDRSNLLTYLGVFDRVRNFFSKETGLNKSMFSYNSKGACPNCGGKGYIETELAFMGEFSQTCEVCHGKRYKPEVLNATIDGYSIADFLELTVDEGIRFFDKENEIQSKLQAISKTGLNYVTLGQPLSTLSGGEIQRVKLGQYLNDDVTDSIFIFDEPTTGLHEADIPILINCFNDLIEQNNTVILIEHNLSIMCDADWIIDVGPGPGLDGGKIQFSGYPINFVKENKTLTSKHLKLYIAND | failed |
| MATAENTELIDRFEEFYRNYYRNEIGELAQKYPNDQKSLYIDWDDLYRFDPDLADDYRTKPEQIQEYAEEALRLYDLPVDVSLGQAHVRVRNLPESEDIRDLRHEHHGNLVAVRGIIRKATDVRPKVIEAAFECQRCGTLTRIPQTAGDFQEPHDCQGCERQGPFRLNTDQSQFIDAQKLRVQESPEGLRGGETPQSIDINIEDDITGHVTAGDHVRVTGILKLDQRGNDNEKSPMFDIYMEGVSVEIEDEQFEDMEITDADKTEIVELSSEPDIYDKMVGAIAPSIYGYEKEKLAMMLQLFSGVTKELPDGSRIRGDLHMLLIGDPGTGKCVHGDTRVTLADGHERPIREVVESNLDDPKPVDDGVWDTVDFDVPSLQSDGTVATQNATKVWKRKAPETLYRIRTATGRELDVTPSHPLFVQSDGRFQARKAEELESGTHVAVPRKVSTNACNELDVTFRQSQAHNRIDLDLPPQWTPELARLIGYIVAEGYVEQRPDNTGYVSITNNDREVLDDAKSVLETLNLNVTERSSHEGKTARELLCSAGEFVSFLASLDETLLQSSAERRVPQDIMRASDNVVTGFIRGYIEGEGHVSTSQREITVASMSKPLLEDVRTLLVTQGITAQLQPRNNGSYRLRISGQSFHDYAEQIGFITARKTEACRQFEGTHGNTNLDIVPNLGPELRRIREALGLTQSECGLPRSTYQHYERGRRNPSRDSLESVLDAFETRLAEMNNDTPISDTARSDGGGTGSLRQDLNGLAALVEGDIAWDRIESIEPIEHDEKWVYDLEIEGTHNYLTNGVVSHNSQMLSYIENIAPRSVYTSGKGSSSAGLTAAAVRDDFGDGQQWTLEAGALVLADQGIAAIDELDKMSPEDRSAMHEALEQQRISVSKAGINATLKSRCSLLGAANPKYGRFDQYEPIGEQIDLEPALISRFDLIFTVTDKPDEEKDRNLAEHIIQTNYAGELHTHRTENPTSNFSEEEVGTVTEEVAPTIEPDLLRKYVAYAKRNCFPTMTEEAKSRIEDFYVDLRLKGQDEDAPVPVTARKLEALVRLAEASARIRLSDTVDEADADRAVDIAHYCLKEIGVDPETGEFDADVVETGQSKTQRDRIQNIKGIISDIEDEYDEGAPADVVIERAEEVGIDESKAEHEIDKLKQKGEVYEPRTDHLRTT | failed |
| MASREVSITRISPLATFRVALAMSIIGLVAWIICVTVLYFGLNVAGVWQNFNDVIGGVGAEQTITFGLVLSISALLGAIGAITVAVLAPLCAIIYNSIVDLFGGLQIQLQEEVD | failed |
| MARIIRRPLNLTAAVRFRLSPLSPFSGNSGSINSETTSWSELIRVPSLVEGCDYKHWLVLMKPPNGYPTRNHIVQSFVETLAMALGSEEEAKRSIYSVSTKYYYAFGCRIHEPLTYKIRSLPDVKWVLPDSFIVDGDNRYGGEPFVDGEVVPYDEKYHADWLRDQTDEDAKSGVVKKKHRRKRKKKLI | failed |
| MTYFASDFQDLDNSGNIENFIRCLELQQSLDLYKYYKQKTFEKMQLKPGDSVLEVGCGTGNDALLLANYVGETGKVTAVDRSQFMLDQARERAKNSTTKFEFVLADAEQLPFPGANFTAARVDRTLQHIAQPQKAIAEMARVVQSNGWVVAFEPDWETLVIDSDQRGVTRAITNFWCDNFPSGWVGRYLFKYFRQAGLTDIAVDPITICLTEFELADKILDLSRTVEKISEQGTISQNDLTLWFKAIDQNDQAGEFFCAFTAFLVRGRKP | failed |
| MKPKVFITREIPEVGIKMLEDEFEVEVWGDEKEIPREILLKKVKEVDALVTMLSERIDKEVFENAPKLRIVANYAVGYDNIDIEEATKRGIYVTNTPDVLTDATADLAFALLLATARHVVKGDRFVRSGEWKKRGVAWHPKWFLGYDVYGKTIGIIGLGRIGQAIAKRAKGFNMRILYYSRTRKEEVERELNAEFKPLEDLLRESDFVVLAVPLTRETYHLINEERLKLMKKTAILINIARGKVVDTNALVKALKEGWIAGAGLDVFEEEPYYNEELFKLDNVVLTPHIGSASFGAREGMAELVAKNLIAFKRGEIPPTLVNREVIKIRKPGFE | not failed |
| DMKQLAEDVKLQLYKLLEIPDPDKNWATLAQKLGLGILNNAFRLSPAPSKTLMDNYEVSGGTVRELVEALRQMGYTEAIEVIQAASS | not failed |
| MRTKNILAALALFLGISLPSLVEAANAYATGNVNVRTGPGTRYPRTGTIPAGATLTIRGCLNGYSWCEVIFAGQSGWASSNYLQATYQNRRRPVIHIGPVIGLPVIVHKPRPPHWEHRPRPPRPPHWGHRPRPPHWDHRPRPPRPQPRLEHHHHHH | not failed |
| MSLSLWQQCLARLQDELPATEFSMWIRPLQAELSDNTLALYAPNRFVLDWVRDKYLNNINVLLNDFCGMDAPLLRFEVGSKPLVQTISQPAQSHHNPVSVARQQPVRMAPVRPSWDNSPVQAEHTYRSNVNPKHTFDNFVEGKSNQLARAAARQVADNPGGAYNPLFLYGGTGLGKTHLLHAVGNGIIARKPNAKVVYMHSERFVQDMVKALQNNAIEEFKRYYRSVDALLIDDIQFFANKERSQEEFFHTFNALLEGNQQIILTSDRYPKEINGVEDRLKSRFGWGLTVAIEPPELETRVAILMKKADENDIRLPGEVAFFIAKRLRSNVRELEGALNRVIANANFTGRSITIDFVREALRDLLALQEKLVTIDNIQKTVAEYYKIKIADLLSKRRSRSVARPRQMAMALAKELTNHSLPEIGDAFGGRDHTTVLHACRKIEQLREESHDIKEDFSNLIRTLSSLEHHHHHH | not failed |
| EYGYEDLRESSNSLLNHQLSEIDQARLYSCLDHMREVLGDAVPDDILTEAILKHKFDVQKALSVVLEQDG | not failed |
| MGRPRYLAYTRQIAMKSWRKAVVGTQATVGDAIAAIESGSIQIALVLDDQNRLLGVVTDGDVRRGLLRGIPLTGLATDIMNRVPVSAPATLSRDDRLHLMRQKSIKQLPLVDEGGHLVVVETLDELLEPRHYANPVLIMAGGLGERLGALTRDVPKPMLNVGGRPLLETIVRNVVQQGFRNIYISVNYKAETIKDYFADGAAFGANIQYVHETERLGTAGALGLFPAPPDLPMIVTNGDILTTINYGALLDFHNGTPAEATMAVREHKVHVPYGVVSTSDGFLQAIREKPTESWFVSAGIYVIGSSVFGHVAPGVSIDMPTVLERVIAGKGRVAVYPIREYWLDIGRLEDFEQAHAEFHEVFPLEHHHHHH | not failed |
| MFIASFITGPFQTNCYLLAREQGSECVIVDLGMGAEEFLGDALRTHHLVPVAIAVTHGHIDHIGSARQVGDEYGIPVLCPRDDRHLLSDPMAGLSDFARPLIEQWYGSTTLREPEQVVDVEPFSHHQFANLDLEFLHAPGHTPGCSMIRTIDAEFGPIVMSGDVVFAGSIGRTDMPGGDPAQMSYSLSDVVWSLDDSTHVLPGHGGPTTMANERLTNPFLGRR | failed |
| MGSFDDVIGNHQADTAMIVQISADRKEINLVSIPRDSLVDVPQCETSKGTIPAQYNVMFNSIFAGAYKTGGDLSSAASCTLNAVNSLTGLNIQNFIVVDFAGLVKMIDSVGGVDLCIPQNVNDPYTGLNLDKGMHHLDGVAATQYARIRHGIGDGSDTSRTTRQQYLIKQLMSEALSKNLFTDTAQLYQLAKSALKSLNISQGMADTAALAGLAMSLKNFTMTNLQTQTVPVVPAPSDPNRSVWTDEADNLWEKMRAGKPIFDTADSNSGGSSDTSSDNSASSDDSGTTDSNQSDTTAETPDPVTGLITKSDGTLVDPSTGGTVDPDDGSIHDATTGQYIGLADRYLNATVCAVPAKNLEHHHHHH | not failed |
| MSESAKVWLVTGASSGFGRAIAEAAVAAGDTVIGTARRTEALDDLVAAYPDRAEAISLDVTDGERIDVVAADVLARYGRVDVLVNNAGRTQVGAFEETTERELRDLFELHVFGPARLTRALLPQMRERGSGSVVNISSFGGQLSFAGFSAYSATKAALEQLSEGLADEVAPFGIKVLIVEPGAFRTNLFGKGAAYFSEENPAYAEKVGPTRQLVQGSDGSQPGDPAKAAAAIRLALDAEKTPLRLALGGDAVDFLTGHLDSVRAELTEWEKVSRGTDFDTE | not failed |
| MYDSRGVALHSELIHRWNHAFSILSIVAFPKKRLLFAGSQDSKILVFDLPTYNLIHTIRLGESQEETHTRSSVLCLTGSEDENFLFSGGADSLVRIWSIGEKTIRDDFLPVTEIATVYSVTDIGDIFSLAYLDSLETIVFGCQNASLLYVENLIQKIEKKSSDGVENINKLPHRRYDKFFDSLGPTGYSSNSLSQTSLTSLQENCGAAIIEVPSENIIKYAHYGFIYSINKLCPRFNQLLEKSSRTSGAEHIISSAGDGISKLWEFSKDKGQNTVKISLINDKIDNEDSVISQTIEFPFLYCGLTDGIIKIWDLNTQQIISTLKTKHESDVISISVYMDHVFAIDESGITHFYQNQVNHWNPQQGKILSSEIFSKSNAGSVSLLTGGSDGSLTLWDITSLLSAVPLSSNSPINASSTLQTTNLWAAYQSASLNNEEMLNTLRELISFQTVSQSKDTTNTLSLRRCAIYLQQLFLKFGATNSQLFPLPDGGNPVVFAYFQGNGKVSQVKGAKKKRILWYGHYDVISSGNTFNWNTDPFTLTCENGYLKGRGVSDNKGPLVSAIHSVAYLFQQGELVNDVVFLVEGSEEIGSASLKQVCEKYHDIIGKDIDWILLSNSTWVDQEHPCLNYGLRGVINAQIKVWSDKPDGHSGLNGGVYDEPMVNLVKIVSKLQNEQNEIMIPNFYSPLKDLTEEEYQRFQKITELANIDENTTVQDLITNWTKPSLSMTTVKFSGPGNITVIPKSVTMGISIRLVPEQSVEQVKRDLKAYLEESFKQLKSQNHLEIKVLNEAEGWLGDPTNHAYQILKDEITTAWDVEPLLVREGGSISCLRMLERIFDAPAVQIPCGQSTDNGHLANENLRIKNWSNLTEILSKVFNRL | failed |
| MEKNDIFVVIPAYNEEKMIKNTLINLKSHGYENIIVVDDGSRDNTSKIAISEEVIVCKHIINRGLGGALKTGLKCAVKYNPKVIVTFDADGQHDPEDIFKVSEPILEDSFDVVVGSRLIDENELKNMPLIKKIGNWGLNFITYLMGGRMVTDSQGGLRAFSYDAAEIVSKQLKSNRYEVSSEFIVLFKKNNLKFKEVPIKTIYTEYSMARGTNVITGFKILFKLLIQKLILEHHHHHH | not failed |
| MLKRLSVVHSPNGAPMAPSSHEWTDTLKDVYTARAANADLNARYIPLLPVNQRIQHERDRALANMLRQHLSVPPAQARVLEVGCGSGSNLLDLIRLGFDPANLMGNDLMDSRVEQARHRLPQAVPILAGNALDLDLEREGFDVLYQSTVFTSILDAQARRDLAQRMWHWTKPGGGVLWYDFAYNNPRNPNVRGVPLREVRALFPHARIHTARVTLAPPLARRLPATLYAPVNNLCPFLRTHLLCWIGKPAAP | failed |
